# From paper PMC9560800
# Several values for one entry are separate records, joined by “and”; a condition that tells them apart may be missing. Equal entries are not always repeated.
# Tests used:
# [1] = target: tag-less B.1.351 trimeric spike protein (SARS-CoV-2 | T4 phage); assay: SEC-MALS
# [2] = target: tag-less B.1.617.2 trimeric spike protein (SARS-CoV-2 | T4 phage); assay: SEC-MALS
Substance,stoichiometry N [1],stoichiometry N [2]
tag-less B.1.351 trimeric spike protein,3 and 6,–
tag-less B.1.617.2 trimeric spike protein,–,3 and 6
